# Results as given in PMC4881810.
# Biological target: SNA I lectin from Sambucus nigra (Sambucus nigra)
# Test: electrochemical impedance spectroscopy
# Chain of SNA I lectin from Sambucus nigra (Sambucus nigra) (Q41358 29-289 limits assumed, chain 1 of 2): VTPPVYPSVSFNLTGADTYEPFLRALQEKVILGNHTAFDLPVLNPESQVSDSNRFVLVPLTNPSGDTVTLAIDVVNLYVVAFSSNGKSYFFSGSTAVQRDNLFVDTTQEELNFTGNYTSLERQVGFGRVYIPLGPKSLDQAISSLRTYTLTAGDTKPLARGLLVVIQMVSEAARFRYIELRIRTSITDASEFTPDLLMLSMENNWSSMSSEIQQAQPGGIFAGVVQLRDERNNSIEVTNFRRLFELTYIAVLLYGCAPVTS
# Chain of SNA I lectin from Sambucus nigra (Sambucus nigra) (Q41358 309-570 limits assumed, chain 2 of 2): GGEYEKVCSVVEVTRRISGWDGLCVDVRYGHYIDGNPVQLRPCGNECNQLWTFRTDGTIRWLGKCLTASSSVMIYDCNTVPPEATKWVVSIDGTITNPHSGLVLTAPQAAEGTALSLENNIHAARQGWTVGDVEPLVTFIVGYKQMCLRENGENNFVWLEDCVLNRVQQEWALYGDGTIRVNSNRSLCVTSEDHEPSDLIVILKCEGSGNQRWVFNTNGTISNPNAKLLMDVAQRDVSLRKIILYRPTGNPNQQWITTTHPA
binder,measurement,value
fetuin (natural protein) IPLDPVAGYKEPACDDPDTEQAALAAVDYINKHLPRGYKHTLNQIDSVKVWPRRPTGEVYDIEIDTLETTCHVLDPTPLANCSVRQQTQHAVEGDCDIHVLKQDGQFSVLFTKCDSSPDSAEDVRKLCPDCPLLAPLNDSRVVHAVEVALATFNAESNGSYLQLVEISRAQFVPLPVSVSVEFAVAATDCIAKEVVDPTKCNLLAEKQYGFCKGSVIQKALGGEDVRVTCTLFQTQPVIPQPQPDGAEAEAPSAVPDAAGPTPSAAGPPVASVVVGPSVVAVPLPLHRAHYDLRHTFSGVASVESSSGEAFHVGKTPIVGQPSIPGGPVRLCPGRIRYFKI,specific sensitivity (OxASF subtracted),259 Ω decade^-1
